Positions count from the first letter of the chain named.
B1: 74-16 (ligand)
chain: GQNHHEVVKSIDNEWRKTQCMPREVCIDVGKEFGVATNTFFKPSCVPLMRCGGCCNSEGLQCMNTSTSYLSKTLFEITVPLSQGPKPVTISFANHTSCRCMSKLD
B2: 82-1 (ligand)
chain: AHYNTEILKFMDVYQRSYCHPIETLVDIFQEFGVATNTFFKPPCVSVYRCGGCCNDEGLECVPTEESNITMQIMRIKPHQGQHIGEMSFLQHNKCECRPKKD
B3: 82-3 (ligand)
chain: B2 chain with D56S, E60Q

Biological target: T1, VEGFR-1-Fc (UniProt P17948 27-338)
T1 construct: domain: first three Ig domains; expressed in Drosophila S2 cells, purified on Protein A sepharose; also called VEGFR-1-Fc fusion protein; not shown: Fc fragment from the Signal-pIgPlus vector
Experiment: receptor-Fc IP
Method in brief: (§1)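 Binding of ligand from sample supernatant measured by pentahistidine-antibody immunoprecipitation. IP mix: PBS with 1.5% BSA, 0.06% Tween 20, 3 μg/ml heparin and 400 ng/ml fusion protein, added 1:2 to sample supernatant.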

T1 sequence (P17948 27-338): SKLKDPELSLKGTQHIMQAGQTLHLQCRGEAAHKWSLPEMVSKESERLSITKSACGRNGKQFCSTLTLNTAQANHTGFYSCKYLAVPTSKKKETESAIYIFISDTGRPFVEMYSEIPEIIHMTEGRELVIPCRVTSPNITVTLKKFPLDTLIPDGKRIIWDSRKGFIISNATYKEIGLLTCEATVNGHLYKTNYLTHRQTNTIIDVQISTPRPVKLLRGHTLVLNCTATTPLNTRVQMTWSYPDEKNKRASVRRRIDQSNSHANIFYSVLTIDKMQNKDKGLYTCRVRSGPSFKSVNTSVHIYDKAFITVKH

Binding result, no binding:
B1
B2
B3

Biological target: T2, VEGFR-2-Fc (UniProt P35968 20-322)
T2 construct: domain: first 3 Ig domains; conditioned supernatant of 293T cells; also called VEGFR-2-Fc fusion protein; not shown: Fc fragment of the pIg vector
Experiment: receptor-Fc IP
Method in brief: as §1

T2 sequence (P35968 20-322): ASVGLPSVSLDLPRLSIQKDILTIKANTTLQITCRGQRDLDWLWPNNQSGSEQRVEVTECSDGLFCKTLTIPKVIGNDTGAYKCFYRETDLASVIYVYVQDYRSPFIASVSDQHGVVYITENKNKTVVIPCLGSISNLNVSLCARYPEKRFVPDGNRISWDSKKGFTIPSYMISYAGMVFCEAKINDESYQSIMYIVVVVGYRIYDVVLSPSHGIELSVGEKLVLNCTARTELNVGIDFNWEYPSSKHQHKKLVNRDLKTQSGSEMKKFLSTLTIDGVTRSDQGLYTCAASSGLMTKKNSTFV

Binding result, no binding:
B1
B2
B3

Biological target: T3, VEGFR-3-Fc (UniProt P35916 25-328)
T3 construct: domain: first three Ig domains; conditioned supernatant of 293T cells; also called VEGFR-3-Fc fusion protein; not shown: Fc fragment of the pIg vector
T3 sequence (looked up): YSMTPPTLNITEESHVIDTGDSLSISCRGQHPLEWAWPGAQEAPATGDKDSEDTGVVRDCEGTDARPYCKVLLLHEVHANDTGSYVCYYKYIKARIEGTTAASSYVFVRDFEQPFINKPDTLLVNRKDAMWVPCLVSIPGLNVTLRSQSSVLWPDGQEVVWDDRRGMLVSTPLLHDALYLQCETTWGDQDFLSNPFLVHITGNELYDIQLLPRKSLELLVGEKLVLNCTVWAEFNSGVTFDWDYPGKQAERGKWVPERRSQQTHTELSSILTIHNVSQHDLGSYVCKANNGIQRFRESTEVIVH
Experiment: receptor-Fc IP
Method in brief: as §1

Binding result, no binding:
B1
B2
B3

Source: patent publication US20080058263A1 (published 2008)
